Assay results as given in patent EP4737482A1 (Atheon Bio, Inc., dated 2026).
Where a chain is given by its changes, count along the chain named.

T1: human MYCT1 (hMYCT1) (human, UniProt Q8N699 1-235, limits assumed)
T1 construct: also called MYC Target 1
T1 sequence: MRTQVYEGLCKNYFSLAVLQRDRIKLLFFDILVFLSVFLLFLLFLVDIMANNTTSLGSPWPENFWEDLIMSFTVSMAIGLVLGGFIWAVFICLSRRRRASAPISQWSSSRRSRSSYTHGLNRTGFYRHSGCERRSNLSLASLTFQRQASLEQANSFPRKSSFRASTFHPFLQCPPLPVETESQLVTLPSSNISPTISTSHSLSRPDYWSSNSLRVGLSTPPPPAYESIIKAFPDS

B1: 2B4-z14-uIgG1K (antibody, V domains shown)
VH: EVQLQQSGPELVKPGASVKMSCKASGYTFTDYNMHWVRQSHGKGLEWIGYINPNNGGSSYNRKFKGKATLTVNKSSRSASMELRSLTSEDSAVYYCATRFDVWGTGTTVTVSS
VL: DVVMTQSPLSLPVTLGQPASISCKSSQSLLFSDGKTYLNWLQQRPGQSPRRLIYLVSKLDSGVPDRFSGSGSGTDFTLKISRVEAEDVGVYYCWQGTHFPQTFGGGTKVEIK
B2: 2B4-z2-uIgG1K (antibody, V domains shown)
VH: QVQLVQSGAEVKKPGASVKVSCKASGYTFTDYNMHWVRQAPGQGLEWMGYINPNNGGSSYNRKFKGRVTMTTDTSTSTAYMELRSLRSDDTAVYYCATRFDVWGQGTTVTVSS
VL: B1 VL
B3: 2B4-z15-uIgG1K (antibody, V domains shown)
VH: B2 VH with V20M, M48I, M70L, T72V, T74K, S77R
VL: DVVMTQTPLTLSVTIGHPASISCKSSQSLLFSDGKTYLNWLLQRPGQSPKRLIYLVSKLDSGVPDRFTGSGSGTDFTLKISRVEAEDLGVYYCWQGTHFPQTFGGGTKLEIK
B4: 2B4-z3-uIgG1K (antibody, V domains shown)
VH: B2 VH with M70L
VL: B1 VL
B5: 2B4-z11-uIgG1K (antibody, V domains shown)
VH: B2 VH with M70L, T72V, T74K, S77R
VL: B1 VL
B6: 2B4-z5-uIgG1K (antibody, V domains shown)
VH: B2 VH with T74K
VL: B1 VL
B7: 2B4-z7-uIgG1K (antibody, V domains shown)
VH: B2 VH with V20M
VL: B1 VL
B8: 2B4-z13-uIgG1K (antibody, V domains shown)
VH: B2 VH with V20M, M48I, M70L, T72V, T74K, S77R
VL: B1 VL
B9: 2B4-z10-uIgG1K (antibody, V domains shown)
VH: B2 VH with T72V, T74K, S77R
VL: B1 VL
B10: 2B4-z8-uIgG1K (antibody, V domains shown)
VH: B2 VH with M48I
VL: B1 VL
B11: 2B4-z4-uIgG1K (antibody, V domains shown)
VH: B2 VH with T72V
VL: B1 VL
B12: 2B4-z6-uIgG1K (antibody, V domains shown)
VH: B2 VH with S77R
VL: B1 VL
B13: 2B4-z12-uIgG1K (antibody, V domains shown)
VH: B2 VH with V20M, M70L, T72V, T74K, S77R
VL: B1 VL
B14: 11B6-z16-p3-uIgG1K (antibody, V domains shown)
VH: EVQLVESGGGLVKPGGSLRLSCAASGFTFSDFGIHWVRQAPGKGLEWVGYISSGSRTIHYADTVKGRFTISRDNAKNSLYLQMNSLRAEDTAVYYCARRDWDPEWLAYWGQGTLVTVSS
VL: DIVMTQSPLSLPVTPGEPASISCRSSLSLVHSNAHTYLHWYLQKPGQSPKLLIYKVSNRFSGVPDRFSGSGSGTDFTLKISRVEAEDVGVYFCSQSTHVPFTFGQGTKLEIK
notes: also called hzATN001; ATN001
B15: 11B6-z10-p3-uIgG1K (antibody, V domains shown)
VH: B14 VH
VL: B14 VL with I2V, K50Q
B16: 11B6-z12-p3-uIgG1K (antibody, V domains shown)
VH: B14 VH with V93I
VL: B14 VL with I2V, S81R
B17: 2B4-p1-uIgG1K (antibody, V domains shown)
VH: B1 VH with N55Q
VL: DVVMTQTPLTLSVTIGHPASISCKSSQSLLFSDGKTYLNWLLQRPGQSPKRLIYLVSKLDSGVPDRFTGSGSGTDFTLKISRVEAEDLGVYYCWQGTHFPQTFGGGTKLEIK
B18: 2B4-p3-uIgG1K (antibody, V domains shown)
VH: B1 VH with G56A
VL: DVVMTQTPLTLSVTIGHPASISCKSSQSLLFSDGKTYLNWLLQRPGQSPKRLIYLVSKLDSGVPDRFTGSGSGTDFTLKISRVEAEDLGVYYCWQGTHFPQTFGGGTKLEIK
B19: 2B4-p2-uIgG1K (antibody, V domains shown)
VH: B1 VH with N55S
VL: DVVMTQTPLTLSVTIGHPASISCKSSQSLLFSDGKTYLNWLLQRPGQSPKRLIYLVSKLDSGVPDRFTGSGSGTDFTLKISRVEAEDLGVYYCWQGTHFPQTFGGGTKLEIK
B20: 2B4-p6-uIgG1K (antibody, V domains shown)
VH: B1 VH
VL: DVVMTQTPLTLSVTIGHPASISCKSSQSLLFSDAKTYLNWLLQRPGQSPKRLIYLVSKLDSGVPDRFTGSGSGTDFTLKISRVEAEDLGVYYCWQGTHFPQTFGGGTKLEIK
B21: 2B4-p4-uIgG1K (antibody, V domains shown)
VH: B1 VH
VL: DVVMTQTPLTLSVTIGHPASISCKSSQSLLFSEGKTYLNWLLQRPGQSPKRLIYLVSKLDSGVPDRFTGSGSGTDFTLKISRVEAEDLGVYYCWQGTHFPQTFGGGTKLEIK
B22: 11B6-z0-uIgG1K (antibody, V domains shown)
VH: B14 VH with G49S
VL: B14 VL with A34G, K50Q, F92Y
B23: 11B6-z7-uIgG1K (antibody, V domains shown)
VH: B14 VH with G49S
VL: B14 VL with A34G, K50Q, S81R, F92Y
B24: 11B6-z5-uIgG1K (antibody, V domains shown)
VH: B14 VH with G49S
VL: B14 VL with I2V, A34G, K50Q, F92Y
B25: 11B6-z8-uIgG1K (antibody, V domains shown)
VH: B14 VH with G49S
VL: B14 VL with A34G, K50Q
B26: 11B6-z6-uIgG1K (antibody, V domains shown)
VH: B14 VH with G49S
VL: B14 VL with A34G, F92Y
B27: 11B6-p1-uIgG1K (antibody, V domains shown)
VH: B14 VH with R19K, G42E, S78T, Y80F, N84T, S85N, A88S, V93I, V117I, S119A
VL: DVVMTQAPLSLPVSLGDQASISCRSSLSLVHSQGHTYLHWYLQKPGQSPKLLIYKVSNRFSGVPDRFSGSGSGTDFTLKIRRVEAEDLGVYFCSQSTHVPFTFGSGTKLEIK
B28: 11B6-z9-uIgG1K (antibody, V domains shown)
VH: B14 VH with G49S
VL: B14 VL with I2V, A34G, K50Q
B29: 11B6-z12-uIgG1K (antibody, V domains shown)
VH: B14 VH with V93I
VL: B14 VL with I2V, A34G, S81R
B30: 11B6-z4-uIgG1K (antibody, V domains shown)
VH: B14 VH with G49S, V93I
VL: B14 VL with A34G, K50Q, F92Y
B31: 11B6-z3-uIgG1K (antibody, V domains shown)
VH: B14 VH with G49S, Y80F
VL: B14 VL with A34G, K50Q, F92Y
B32: 11B6-z1-uIgG1K (antibody, V domains shown)
VH: B14 VH
VL: B14 VL with A34G, K50Q, F92Y
B33: 11B6-z2-uIgG1K (antibody, V domains shown)
VH: B14 VH with G49S, S78T
VL: B14 VL with A34G, K50Q, F92Y
B34: 11B6-z13-uIgG1K (antibody, V domains shown)
VH: B14 VH with S78T, Y80F, V93I
VL: B14 VL with I2V, A34G, S81R
B35: 11B6-z11-uIgG1K (antibody, V domains shown)
VH: B14 VH with V93I
VL: B14 VL with I2V, A34G, K50Q
B36: 11B6-z10-uIgG1K (antibody, V domains shown)
VH: B14 VH
VL: B14 VL with I2V, A34G, K50Q
B37: 11B6-p3-uIgG1K (antibody, V domains shown)
VH: B14 VH with R19K, G42E, S78T, Y80F, N84T, S85N, A88S, V93I, V117I, S119A
VL: B27 VL with Q33N, G34A
B38: 11B6-z14-uIgG1K (antibody, V domains shown)
VH: B14 VH with R19K, G42E, S78T, Y80F, N84T, S85N, A88S, V93I, V117I, S119A
VL: B14 VL with I2V, A34G, S81R
B39: 11B6-p2-uIgG1K (antibody, V domains shown)
VH: B14 VH with R19K, G42E, S78T, Y80F, N84T, S85N, A88S, V93I, V117I, S119A
VL: B27 VL with Q33S
B40: 11B6-z15-uIgG1K (antibody, V domains shown)
VH: B14 VH with S78T, Y80F, V93I
VL: B27 VL with Q33N

target: T1, human MYCT1 (hMYCT1); assay: SPR (Biacore 8K), antibody captured via anti-human Fc IgG, MYCT1 as analyte, steady-state affinity model

First: B1
Second: B2
The Kd of the first is 1.8-fold lower: 203 nM for the first, 368 nM for the second. The first binds more tightly here.

Going from B3 to B4, the Kd falls from 617 nM to 332 nM (1.9-fold). The second binds more tightly here.

B5 and B6 are within 1.5-fold of each other in Kd: 449 nM for the first, 351 nM for the second.

B7 and B8 are within 1.5-fold of each other in Kd: 382 nM for the first, 443 nM for the second.

B9 and B10 are within 1.5-fold of each other in Kd: 456 nM for the first, 321 nM for the second.

B11 and B12 are within 1.5-fold of each other in Kd: 354 nM for the first, 447 nM for the second.

B13 gave a Kd of 428 nM.

target: T1, human MYCT1 (hMYCT1); assay: SPR full kinetics, multicycle, antibody captured via anti-human Fc IgG, MYCT1 0.625-10 nM as analyte, 1:1 binding model

B14 and B15 are within 1.5-fold of each other in Kd: 2.53 nM for the first, 3.34 nM for the second.

Binder B16 has a Kd of 2.35 nM.

B14 and B15 are within 1.5-fold of each other in koff: 0.00841 s⁻¹ for the first, 0.0122 s⁻¹ for the second.

B16 showed a koff of 0.00786 s⁻¹.

B14 and B15 are within 1.5-fold of each other in kon: 3.32e+06 M⁻¹ s⁻¹ for the first, 3.65e+06 M⁻¹ s⁻¹ for the second.

B16 showed a kon of 3.35e+06 M⁻¹ s⁻¹.

target: T1, human MYCT1 (hMYCT1); assay: SPR (Biacore 8K), antibody captured via anti-human Fc IgG, MYCT1 as analyte, steady-state affinity model; remark: another data set of the same source

B17 and B18 are within 1.5-fold of each other in Kd: 264 nM for the first, 270 nM for the second.

B19 and B20 are within 1.5-fold of each other in Kd: 224 nM for the first, 288 nM for the second.

B21 was tested, and the Kd was over 500 nM.

target: T1, human MYCT1 (hMYCT1); assay: SPR koff ranking, single curve, antibody captured via anti-human Fc IgG, 10 nM MYCT1 as analyte, 1:1 binding model

B22 and B23 are within 1.5-fold of each other in koff: 0.0624 s⁻¹ for the first, 0.0473 s⁻¹ for the second.

First: B24
Second: B25
The koff of the first is 1.6-fold higher: 0.0521 s⁻¹ for the first, 0.0324 s⁻¹ for the second.

Going from B26 to B27, the koff falls from 0.0377 s⁻¹ to 0.00933 s⁻¹ (4-fold).

Compared with B28, B29 is 3.7-fold lower in koff: 0.0311 s⁻¹ for the first, 0.00838 s⁻¹ for the second.

B30 and B31 are within 1.5-fold of each other in koff: 0.0476 s⁻¹ for the first, 0.0659 s⁻¹ for the second.

Compared with B32, B33 is 3.3-fold higher in koff: 0.0169 s⁻¹ for the first, 0.056 s⁻¹ for the second.

B34 and B35 are within 1.5-fold of each other in koff: 0.00838 s⁻¹ for the first, 0.0102 s⁻¹ for the second.

Going from B36 to B37, the koff falls from 0.0102 s⁻¹ to 0.00547 s⁻¹ (1.9-fold).

B38 and B39 are within 1.5-fold of each other in koff: 0.0052 s⁻¹ for the first, 0.00691 s⁻¹ for the second.

Work on B40 yielded a koff of 0.00906 s⁻¹.
